From paper PMC4391263, “Alpers disease mutations in human DNA polymerase gamma cause catalytic defects in mitochondrial DNA replication by distinct mechanisms” come the findings set out here.

Data set [1] has as its target T1, Pol-γA P1073L (exo+);Pol-γB accessory subunit (Homo sapiens;Homo sapiens, UniProt P54098;Q9UHN1 26-1239;26-485, P1073L|). The experiment in a line: global fit of processive polymerization time course; 12.5 mM MgCl2; dATP, dCTP, TTP 5 μM each; 12.5 mM Mg2+, 37 °C; enzyme and DNA preincubated, rapid quench flow; buffer, salt and pH not given in the material. Table 1 WT Kd (9.9 ± 2.1 nM) is asterisked as apparently earlier data and not listed. The settings on record: protein: recombinant;recombinant; tags: ;; copies: 1;2; label: 5'-32P primer; 5' overhang 20 nt on template, recessed primer 3' end.

Data set [2] addresses T1, Pol-γA P1073L (exo+);Pol-γB accessory …. The experiment in a line: pre-steady-state single-nucleotide incorporation kinetics; 12.5 mM Mg2+, dATP; 12.5 mM Mg2+, 37 °C; enzyme and DNA preincubated, rapid quench flow; buffer, salt and pH not given in the material. Table 1 WT Kd (9.9 ± 2.1 nM) is asterisked as apparently earlier data and not listed. The settings on record: protein: recombinant;recombinant; tags: ;; copies: 1;2; label: 5'-32P primer; 5' overhang 20 nt on template, recessed primer 3' end.

Data set [3] has as its target Pol-γA S305R (exo+);Pol-γB accessory subunit (Homo sapiens;Homo sapiens, UniProt P54098;Q9UHN1 26-1239;26-485, S305R|). The experiment in a line: global fit of pre-steady-state single-nucleotide incorporation kinetics (quench flow, DNA titration); 12.5 mM Mg2+, dATP; 12.5 mM Mg2+, 37 °C; enzyme and DNA preincubated, rapid quench flow; buffer, salt and pH not given in the material. Table 1 WT Kd (9.9 ± 2.1 nM) is asterisked as apparently earlier data and not listed. The conditions noted are these: protein: recombinant;recombinant; tags: ;; copies: 1;2; label: 5'-32P primer; 5' overhang 20 nt on template, recessed primer 3' end.

Data set [4] deals with Pol-γA wild-type (exo+);Pol-γB accessory subunit (Homo sapiens;Homo sapiens, UniProt P54098;Q9UHN1 26-1239;26-485, |). The experiment in a line: global fit of processive polymerization time course; 12.5 mM MgCl2; dATP, dGTP, TTP 5 μM each; 12.5 mM Mg2+, 37 °C; enzyme and DNA preincubated, rapid quench flow; buffer, salt and pH not given in the material. Table 1 WT Kd (9.9 ± 2.1 nM) is asterisked as apparently earlier data and not listed. The conditions noted are these: protein: recombinant;recombinant; tags: ;; copies: 1;2; 5' overhang 48 nt on template, recessed primer 3' end.
Sequence of Pol-γA wild-type (exo+);Pol-γB accessory subunit (P54098 26-1239, chain 1 of 2): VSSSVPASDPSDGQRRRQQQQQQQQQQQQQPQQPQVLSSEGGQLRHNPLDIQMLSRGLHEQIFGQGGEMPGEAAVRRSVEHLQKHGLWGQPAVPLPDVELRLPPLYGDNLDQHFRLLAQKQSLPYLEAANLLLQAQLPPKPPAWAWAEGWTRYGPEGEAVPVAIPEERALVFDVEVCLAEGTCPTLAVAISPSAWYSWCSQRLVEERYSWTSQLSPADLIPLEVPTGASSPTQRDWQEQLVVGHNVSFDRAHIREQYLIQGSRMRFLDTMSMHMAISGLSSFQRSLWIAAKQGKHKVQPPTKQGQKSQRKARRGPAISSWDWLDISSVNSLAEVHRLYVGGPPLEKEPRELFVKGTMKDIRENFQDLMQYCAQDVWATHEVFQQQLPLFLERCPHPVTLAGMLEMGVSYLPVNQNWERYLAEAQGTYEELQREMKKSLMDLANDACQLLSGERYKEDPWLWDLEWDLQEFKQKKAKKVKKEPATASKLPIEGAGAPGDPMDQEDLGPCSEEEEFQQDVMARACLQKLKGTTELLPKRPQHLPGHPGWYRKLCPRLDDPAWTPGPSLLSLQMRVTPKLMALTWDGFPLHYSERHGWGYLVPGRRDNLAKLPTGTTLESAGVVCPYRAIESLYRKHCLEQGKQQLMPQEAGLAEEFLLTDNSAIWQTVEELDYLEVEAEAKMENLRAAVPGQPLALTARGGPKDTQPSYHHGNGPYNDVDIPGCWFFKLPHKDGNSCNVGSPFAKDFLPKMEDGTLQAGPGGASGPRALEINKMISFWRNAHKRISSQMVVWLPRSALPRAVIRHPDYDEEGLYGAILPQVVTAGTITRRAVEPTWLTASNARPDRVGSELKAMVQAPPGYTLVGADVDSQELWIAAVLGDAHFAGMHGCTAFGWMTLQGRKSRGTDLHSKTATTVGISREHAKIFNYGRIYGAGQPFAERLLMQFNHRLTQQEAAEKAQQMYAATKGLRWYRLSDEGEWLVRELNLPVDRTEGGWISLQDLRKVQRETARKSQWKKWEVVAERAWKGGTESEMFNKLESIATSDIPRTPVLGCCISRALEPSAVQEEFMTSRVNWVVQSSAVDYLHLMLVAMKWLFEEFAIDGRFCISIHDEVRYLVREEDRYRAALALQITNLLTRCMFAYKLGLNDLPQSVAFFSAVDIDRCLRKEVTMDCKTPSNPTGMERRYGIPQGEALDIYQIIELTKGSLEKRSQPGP
Sequence of Pol-γA wild-type (exo+);Pol-γB accessory subunit (Q9UHN1 26-485, chain 2 of 2): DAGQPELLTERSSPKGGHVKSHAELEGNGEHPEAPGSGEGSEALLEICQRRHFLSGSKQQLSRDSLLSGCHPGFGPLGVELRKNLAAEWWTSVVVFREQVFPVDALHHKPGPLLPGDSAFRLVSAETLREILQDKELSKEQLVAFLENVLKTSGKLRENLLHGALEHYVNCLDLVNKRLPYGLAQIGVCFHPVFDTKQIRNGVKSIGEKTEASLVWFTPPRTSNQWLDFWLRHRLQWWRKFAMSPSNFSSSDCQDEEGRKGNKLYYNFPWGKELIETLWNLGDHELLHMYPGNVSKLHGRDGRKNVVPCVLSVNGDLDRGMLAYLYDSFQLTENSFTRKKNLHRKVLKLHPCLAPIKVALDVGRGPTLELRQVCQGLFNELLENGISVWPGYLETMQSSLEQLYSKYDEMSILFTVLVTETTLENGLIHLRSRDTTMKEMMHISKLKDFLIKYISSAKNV

T1 sequence (P54098 26-1239 P1073L, chain 1 of 2): as the sequence (P54098 26-1239, chain 1 of 2) above, with P1048L counted along it
T1 sequence (Q9UHN1 26-485, chain 2 of 2): as the sequence (Q9UHN1 26-485, chain 2 of 2) above
Sequence of Pol-γA S305R (exo+);Pol-γB accessory subunit (P54098 26-1239 S305R, chain 1 of 2): as the sequence (P54098 26-1239, chain 1 of 2) above, with S280R counted along it
Sequence of Pol-γA S305R (exo+);Pol-γB accessory subunit (Q9UHN1 26-485, chain 2 of 2): as the sequence (Q9UHN1 26-485, chain 2 of 2) above

B1: 25-mer/45-mer primer-template (dsDNA)
DNA 1: GCCTCGCAGCCGTCCAACCAACTCA
DNA 2: GGACGGCATTGGATCGAGGTTGAGTTGGTTGGACGGCTGCGAGGC
Consider B1, for which the values for the Kd in data set [1], in data set [2] and in data set [3] were 15 nM, 10.2 ± 1.2 nM and 100 ± 4 nM, respectively.

B2: 25-mer/73-mer primer-template (dsDNA)
DNA 1: GCCTCGCAGCCGTCCAACCAACTCA
DNA 2: CCCCACCTGCAGGCATGCAAGCTTGGCACTGGCCGTCGTTTTACCTCTTGAGTTGGTTGGACGGCTGCGAGGC
For the molecule B2, the Kd in data set [4] stood at 15 nM.
